Measurements from patent US20220235118A1 (IMMUNOME, published 2022).

B1: PR193_00018 (antibody, V domains shown)
VH: EVQLVESGGGLVQPGGSLRLSCSASGFTFSSFWMSWVRQAPGKGLEWVATIREDGSEKYYVDSVKGRFSISRDNAKNSLYLQMNSLRAEDTAVYYCARSKWLRGSFDYWGQGTLVTVSS
VL: NFMLTQPHSVSESPGKTVTISCTRRSGSIASNYVQWYQQRPGSAPTTVIYEDNQRPSGVPDRFSGSIDSSSNSASLTISGLQTEDEADYYCQSYDSSNPPGASWVFGGGTKLTVL
notes: also called IMM20184; IMM200184
B2: PR200_00622 (antibody, V domains shown)
VH: QVQLVESGGGVVQPGRSLRLSCTASGFTFSTYGMHWVRQAPGKGLEWVAVISYDGSSKHYAESVKGRFTISRDNSNNTLYLQMNRLRAEDTAVYYCARDGQPPGWGNYFDYWGQGTLVTVAS
VL: SYVLTQPPSVSVAPGKTARITCGGNGIGSKSVYWYQQKPGQAPEVVVYDDSDRPSGIPERFSGSNSGNTATLTISRVEAGDEADYYCQVWDSSSDPWVFGGGTKLTVL
notes: also called IMM20253; PR200_00253
B3: PR194_00232 (antibody, V domains shown)
VH: EVQLVESGGGLVQPGGSLRLSCSASGFTVSSNYMSWVRQAPRKGLEWVSVIYAGGSTFYADSVKGRFTISRDNSKNTLLLQMNSLRAEDTAVYYCARDRGGYLDYWGQGTLVTVSS
VL: DIQMTQSPSSLSASVGDRVTITCRASQGISNYLAWYQQKPGKVPKLLIYAASTLQSGVPSRFSGSGSGTDFTLTISSLQPEDVATYYCQKYNSAPGLTFGGGTKVEIK
notes: also called IMM20190; PR194_00190

What was measured:
[1] = target: T1, SARS-CoV-2 Spike receptor binding domain (RBD), reference (USA/WA_CDC-WA1/2020) (SARS-CoV-2, UniProt P0DTC2 319-591); assay: SPR, antibody as ligand, RBD as analyte
[2] = target: T2, SARS-CoV-2 Spike, full-length S (FL, trimer-stabilized), reference (WA1/2020) (SARS-CoV-2, UniProt P0DTC2 14-1208); assay: SPR, antibody as ligand, Trimer as analyte
T2 construct: also called Spike trimer; intact trimer

[3] = target: T3, SARS-CoV-2 Spike S1 domain, reference (SARS-CoV-2, UniProt P0DTC2 16-685); assay: HTRF, soluble S1 construct
T3 construct: domain: S1; also called S1 subunit

[4] = target: T1, SARS-CoV-2 Spike receptor binding …; assay: HTRF, soluble RBD construct

Row | Binder | Kd [1] | koff [1] | Kd [2] | koff [2] | kon [2] | EC50 [3] | EC50 [4] | kon [1]
1 | B1 | 22 nM | 0.00131 s⁻¹ | 7.35 nM | 0.000229 s⁻¹ | 31200 M⁻¹ s⁻¹ | 0.0318 nM | 0.0448 nM | –
2 | B2 | 0.157 nM | 0.000218 s⁻¹ | 1.44 nM | 0.000117 s⁻¹ | 81300 M⁻¹ s⁻¹ | 0.0491 nM | 0.0527 nM | 1.39e+06 M⁻¹ s⁻¹
3 | B3 | 1.87 nM | 0.000376 s⁻¹ | 6.59 nM | 0.000195 s⁻¹ | 29500 M⁻¹ s⁻¹ | 0.056 nM | 0.0682 nM | 202000 M⁻¹ s⁻¹
